# Test results reported in the RNAGym collection of RNA variant scans (doi:10.1093/molbev/msab373).
# B1: Azoarcus group I ribozyme (parent)
# chain: GUGCCUUGCGCCGGGAAACCACGCAAGGGAUGGUGUCAAAUUCGGCGAAACCUAAGCGCCCGCCCGGGCGUAUGGCAACGCCGAGCCAAGCUUCGGCGCCUGCGCCGAUGAAGGUGUAGAGACUAGACGGCACCCACCUAAGGCAAACGCUAUGGUGAAGGCAUAGUCCAGGGAGUGGCGAAAGUCACACAAACCGG
# Variants of: B1
# Assay: reverse-splicing fitness (ratio to wild type); higher = more active; in vitro selection; Mg2+ level not given
# Method in brief: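 An in vitro group I ribozyme library with randomized positions was T7-transcribed and gel-purified. In triplicate, 10 pmol RNA in EPPS pH 7.5 was reacted with 50 pmoles of a 30-nt RNA substrate for 1 h at 37 °C across several added MgCl2 levels (1–48 mM), then stopped with EDTA. Products were reverse transcribed from a substrate-complementary primer, PCR-amplified and sequenced (HiSeq 4000). Fitness is a variant's read proportion after selection over that before, normalised to wild type.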
row,Variant,reverse-splicing fitness
1,C82U A111G A120U A145U C150A C169G,0.00226
2,C82U A111G A120U A145U C150A C169A,0.00228
3,C82U A111G A120U A145U C150A C169U,0.00292
4,C82U A111G A120U A145G C150U C169G U176A,0.00913
5,C82U A111G A120U A145G C150U C169G U176C,0.00432
6,C82U A111G A120U A145G C150U C169G U176G,0.00189
7,C82U A111G A120U,0.0431
8,C82U A111G A120U A145C C150G C169A,0.00238
9,C82U A111G A120U A145C C150G C169G,0.00252
10,C82U A111G A120U A145C C150G C169U,0.00264
11,C82U A111G A120U A145U C150A C169A U176C,0.00251
12,C82U A111G A120U A145U C150A C169A U176G,0.00195
13,C82U A111G A120U A145U C150A C169A U176A,0.00277
14,C82U A111G A120U A145C C150U C169A,0.00187
15,C82U A111G A120U A145C C150U C169U,0.00249
16,C82U A111G A120U A145C C150U C169G,0.00245
17,C82U A111G A120U A145C C169A,0.00224
18,C82U A111G A120U A145C C169G,0.00247
19,C82U A111G A120U A145C C169U,0.00379
20,C82U A111G A120U A145G C150U C169U,0.00469
21,C82U A111G A120U A145G C150U C169G,0.00615

row,Variant,reverse-splicing fitness
1,C82U A111G A120U A145G C150U C169A,0.0056
2,C82U A111G A120U A145C C150U,0.011
3,C82U A111G A120U A145C C150A,0.00504
4,C82U A111G A120U A145C C150G,0.00671
5,C82U A111G A120U A145G C150G C169U U176G,0.00292
6,C82U A111G A120U A145G C150G C169U U176C,0.00581
7,C82U A111G A120U A145G C150G C169U U176A,0.00458
8,C82U A111G A120U A145C C150G C169U U176G,0.00181
9,C82U A111G A120U A145C C150G C169U U176A,0.00227
10,C82U A111G A120U A145C C150G C169U U176C,0.00213
11,C82U A111G A120G C169U,0.0109
12,C82U A111G A120G C169G,0.0125
13,C82U A111G A120G C169A,0.0106
14,C82U A111G A120G C150U U176G,0.00506
15,C82U A111G A120G C150U U176C,0.0156
16,C82U A111G A120G C150U U176A,0.00985
17,C82U A111G A120U A145C C169G U176A,0.00218
18,C82U A111G A120U A145C C169G U176G,0.00126
19,C82U A111G A120U A145C C169G U176C,0.0021
20,C82U A111G A120U A145U,0.0429
21,C82U A111G A120U A145C,0.0379

row,Variant,reverse-splicing fitness
1,C82U A111G A120U A145G,0.0428
2,C82U A111G A120U A145G C150A U176G,0.00267
3,C82U A111G A120U A145G C150A U176A,0.00588
4,C82U A111G A120U A145G C150A U176C,0.00749
5,C82U A111G A120U A145C C150G U176C,0.00405
6,C82U A111G A120U A145C C150G U176G,0.00159
7,C82U A111G A120U A145C C150G U176A,0.0026
8,C82U A111G A120U A145U C150A U176A,0.00427
9,C82U A111G A120U A145U C150A U176C,0.00416
10,C82U A111G A120U A145C C150G C169G U176G,0.00197
11,C82U A111G A120U A145C C150G C169G U176A,0.00255
12,C82U A111G A120U A145C C150G C169G U176C,0.00251
13,C82U A111G A120G C169G U176G,0.00369
14,C82U A111G A120G C169G U176A,0.0186
15,C82U A111G A120G C169G U176C,0.0247
16,C82U A111G A120U A145C U176C,0.0117
17,C82U A111G A120U A145C U176G,0.00339
18,C82U A111G A120U A145C U176A,0.00851
19,C82U A111G A120G C150U C169U U176G,0.00611
20,C82U A111G A120G C150U C169U U176A,0.0221
21,C82U A111G A120G C150U C169U U176C,0.015

row,Variant,reverse-splicing fitness
1,C82U A111G A120U A145C C150U U176A,0.00377
2,C82U A111G A120U A145C C150U U176G,0.00212
3,C82U A111G A120U A145C C150U U176C,0.00518
4,C82U A111G A120U A145G C150A C169U U176G,0.00215
5,C82U A111G A120U A145G C150A C169U U176A,0.00427
6,C82U A111G A120U A145G C150A C169U U176C,0.00341
7,C82U A111G A120U A145C C150G C169A U176G,0.00209
8,C82U A111G A120U A145C C150G C169A U176A,0.00187
9,C82U A111G A120U A145C C150G C169A U176C,0.00258
10,C82U A111G A120U A145G C150U C169U U176C,0.00348
11,C82U A111G A120U A145G C150U C169U U176G,0.00238
12,C82U A111G A120U A145G C150U C169U U176A,0.00391
13,C82U A111G A120U A145C C150U C169A U176A,0.00277
14,C82U A111G A120U A145C C150U C169A U176C,0.0021
15,C82U A111G A120U A145C C150U C169A U176G,0.00196
16,C82U A111G A120U A145G C150A C169G,0.00549
17,C82U A111G A120U A145G C150A C169U,0.00348
18,C82U A111G A120U A145G C150A C169A,0.00559
19,C82U A111G A120U A145G C150U U176G,0.00327
20,C82U A111G A120U A145G C150U U176C,0.0134
